US20260070983A1 (Eli Lilly, published 2026)

Molecular target: human PD-1-ECD-His (human)
Test: SPR (Biacore), 37 °C

Sequence of human PD-1-ECD-His (human) (chain, as listed by the source): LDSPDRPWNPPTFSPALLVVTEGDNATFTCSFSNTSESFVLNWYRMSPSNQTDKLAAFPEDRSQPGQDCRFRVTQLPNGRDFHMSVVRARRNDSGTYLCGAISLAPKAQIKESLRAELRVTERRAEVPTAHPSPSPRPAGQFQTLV

B1: peresolimab (antibody, V domains shown)
VH: QVQLVQSGAEVKKPGASVKVSCKVSGYSLSKYDMSWVRQAPGKGLEWMGIIYTSGYTDYAQKFQGRVTMTEDTSTDTAYMELSSLRSEDTAVYYCATGNPYYTNGFNSWGQGTLVTVSS
VL: DIQMTQSPSSLSASVGDRVTITCQASQSPNNLLAWYQQKPGKAPKLLIYGASDLPSGVPSRFSGSGSGTDFTLTISSLQPEDFATYYCQNNYYVGPVSYAFGGGTKVEIK
Kd: 2.29 nM
koff: 0.000701 s⁻¹
kon: 307000 M⁻¹ s⁻¹
